Test results from patent publication US20240209076A1 (KODIAK SCIENCES, published 2024).
Where a chain is given by its changes, count along the chain named. Names may count otherwise.

B1: Anti-IL-6 antibody, heavy chain S35H, G66D, L100V / light chain M32L, M50D, N52S, M88Q (antibody, IgG1, V domains shown)
VH: EVQLVESGGGLVQPGGSLRLSCAASGFTFSPFAMHWVRQAPGKGLEWVAKISPGGSWTYYSDTVTDRFTFSLDTSKSTAYLQMNSLRAEDTAVYYCARQVWGYYALDIWGQGTLVTVSS
VL: DIQLTQSPSSLSASVGDRVTITCSASISVSYLYWYQQKPGKAPKLLIYDDSSLASGVPSRFSGSGSGTDFTLTISSLQPEDFATYYCQQWSGYPYTFGQGTKVEIK
notes: IgG1; variable domains only; VL is variant III
B2: Anti-IL-6 antibody, heavy chain S35H, G66D, L100T / light chain M32L, M50D, N52S, M88Q (antibody, IgG1, V domains shown)
VH: B1 VH with V100T
VL: B1 VL
notes: as for B1
B3: Anti-IL-6 antibody, heavy chain S35H, G66D, L100K / light chain M32L, M50D, N52S, M88Q (antibody, IgG1, V domains shown)
VH: B1 VH with V100K
VL: B1 VL
notes: as for B1
B4: Anti-IL-6 antibody, heavy chain S35H, G66D, L100A / light chain M32L, M50D, N52S, M88Q (antibody, IgG1, V domains shown)
VH: B1 VH with V100A
VL: B1 VL
notes: as for B1
B5: Anti-IL-6 antibody, heavy chain S35H, G66D, L100Q / light chain M32L, M50D, N52S, M88Q (antibody, IgG1, V domains shown)
VH: B1 VH with V100Q
VL: B1 VL
notes: as for B1
B6: Anti-IL-6 antibody, heavy chain S35H, G66D / light chain M32L, M50D, N52S, M88Q (antibody, IgG1, V domains shown)
VH: B1 VH with V100L
VL: B1 VL
notes: as for B1
B7: Anti-IL-6 antibody, heavy chain WT / light chain WT (antibody, IgG1, V domains shown)
VH: B1 VH with H35S, D66G, V100L
VL: B1 VL with L32M, D50M, S52N, Q88M
notes: IgG1; variable domains only; also called parent; wild-type
B8: Anti-IL-6 antibody, heavy chain S35H, G66D, L100S / light chain M32L, M50D, N52S, M88Q (antibody, IgG1, V domains shown)
VH: B1 VH with V100S
VL: B1 VL
notes: as for B1
B9: Anti-IL-6 antibody, heavy chain S35H, G66D, L100G / light chain M32L, M50D, N52S, M88Q (antibody, IgG1, V domains shown)
VH: B1 VH with V100G
VL: B1 VL
notes: as for B1
B10: anti-IL-6 antibody, heavy chain WT / light chain M32L, M50D, N52S, M88Q (antibody, IgG1, V domains shown)
VH: B1 VH with H35S, D66G, V100L
VL: B1 VL
notes: Full IgG1 (Expi293); VL = variant III
B11: dual inhibitor molecule F (VEGF Trap-AntiIL-6) (other)
heavy: SDTGRPFVEMYSEIPEIIHMTEGRELVIPCRVTSPNITVTLKKFPLDTLIPDGKRIIWDSRKGFIISNATYKEIGLLTCEATVNGHLYKTNYLTHRQTNTIIDVVLSPSHGIELSVGEKLVLNCTARTELNVGIDFNWEYPSSKHQHKKLVNRDLKTQSGSEMKKFLSTLTIDGVTRSDQGLYTCAASSGLMTKKNSTFVRVHEKGGGGSGGGGSEVQLVESGGGLVQPGGSLRLSCAASGFTFSPFAWSWVRQAPGKGLEWVAKISPGGSWTYYSDTVTDRFTFSLDTSKSTAYLQMNSLRAEDTAVYYCARQLWGYYALDVWGQGTLVTVSSASTKGPSVFPLAPSSKSTSGGTAALGCLVKDYFPEPVTVSWNSGALTSGVHTFPAVLQSSGLYSLSSVVTVPSSSLGTQTYICNVNHKPSNTKVDKKVEPKSCDKTHTCPPCPAPEAAGAPSVFLFPPKPKDTLMISRTPEVTCVVVDVSHEDPEVKFNWYVDGVEVHNAKTKPREEQYNSTYRVVSVLTVLHQDWLNGKEYKCKVSNKALPAPIEKTISKAKGQPREPQVYTLPPSREEMTKNQVSLTCLVKGFYPSDIAVEWESNGQPENNYKTTPPVLDSDGSFFLYSKLTVDKSRWQQGNVFSCSVMHEALHNHYTQKSLSCSPGK
light: DIQLTQSPSSLSASVGDRVTITCSASISVSYLYWYQQKPGKAPKLLIYDDSNLASGVPSRFSGSGSGTDFTLTISSLQPEDFATYYCQQWSGYPYTFGQGTKVEIKRTVAAPSVFIFPPSDEQLKSGTASVVCLLNNFYPREAKVQWKVDNALQSGNSQESVTEQDSKDSTYSLSSTLTLSKADYEKHKVYACEVTHQGLSSPVTKSFNRGEC
notes: Trap-antibody fusion, VEGF trap at the N-terminus of the anti-IL-6 heavy chain (VH variant II); light chain variant V
B12: dual inhibitor molecule L (AntiIL-6-VEGF Trap) (other)
heavy: EVQLVESGGGLVQPGGSLRLSCAASGFTFSPFAWSWVRQAPGKGLEWVAKISPGGSWTYYSDTVTDRFTFSLDTSKSTAYLQMNSLRAEDTAVYYCARQLWGYYALDVWGQGTLVTVSSASTKGPSVFPLAPSSKSTSGGTAALGCLVKDYFPEPVTVSWNSGALTSGVHTFPAVLQSSGLYSLSSVVTVPSSSLGTQTYICNVNHKPSNTKVDKKVEPKSCGGGGSGGGGSSDTGRPFVEMYSEIPEIIHMTEGRELVIPCRVTSPNITVTLKKFPLDTLIPDGKRIIWDSRKGFIISNATYKEIGLLTCEATVNGHLYKTNYLTHRQTNTIIDVVLSPSHGIELSVGEKLVLNCTARTELNVGIDFNWEYPSSKHQHKKLVNRDLKTQSGSEMKKFLSTLTIDGVTRSDQGLYTCAASSGLMTKKNSTFVRVHEKDKTHTCPPCPAPEAAGAPSVFLFPPKPKDTLMISRTPEVTCVVVDVSHEDPEVKFNWYVDGVEVHNAKTKPREEQYNSTYRVVSVLTVLHQDWLNGKEYKCKVSNKALPAPIEKTISKAKGQPREPQVYTLPPSREEMTKNQVSLTCLVKGFYPSDIAVEWESNGQPENNYKTTPPVLDSDGSFFLYSKLTVDKSRWQQGNVFSCSVMHEALHNHYTQKSLSCSPGKPGK
light: B11 light
notes: Trap-antibody fusion, VEGF trap between the Fab region (VH variant II) and the Fc; light chain variant V
B13: dual inhibitor molecule G (AntiIL-6-VEGF Trap) (other)
heavy: EVQLVESGGGLVQPGGSLRLSCAASGFTFSPFAISWVRQAPGKGLEWVAKISPGGSWTYYSDTVTDRFTFSLDTSKSTAYLQMNSLRAEDTAVYYCARQLWGYYALDVWGQGTLVTVSSASTKGPSVFPLAPSSKSTSGGTAALGCLVKDYFPEPVTVSWNSGALTSGVHTFPAVLQSSGLYSLSSVVTVPSSSLGTQTYICNVNHKPSNTKVDKKVEPKSCGGGGSGGGGSSDTGRPFVEMYSEIPEIIHMTEGRELVIPCRVTSPNITVTLKKFPLDTLIPDGKRIIWDSRKGFIISNATYKEIGLLTCEATVNGHLYKTNYLTHRQTNTIIDVVLSPSHGIELSVGEKLVLNCTARTELNVGIDFNWEYPSSKHQHKKLVNRDLKTQSGSEMKKFLSTLTIDGVTRSDQGLYTCAASSGLMTKKNSTFVRVHEKDKTHTCPPCPAPEAAGAPSVFLFPPKPKDTLMISRTPEVTCVVVDVSHEDPEVKFNWYVDGVEVHNAKTKPREEQYNSTYRVVSVLTVLHQDWLNGKEYKCKVSNKALPAPIEKTISKAKGQPREPQVYTLPPSREEMTKNQVSLTCLVKGFYPSDIAVEWESNGQPENNYKTTPPVLDSDGSFFLYSKLTVDKSRWQQGNVFSCSVMHEALHNHYTQKSLSCSPGK
light: B11 light with N52S
notes: Trap-antibody fusion, VEGF trap between the Fab region (VH variant I) and the Fc; light chain variant III
B14: dual inhibitor molecule I (AntiIL-6-VEGF Trap) (other)
heavy: B13 heavy
light: B11 light
notes: Trap-antibody fusion, VEGF trap between the Fab region (VH variant I) and the Fc; light chain variant V
B15: dual inhibitor molecule K (AntiIL-6-VEGF Trap) (other)
heavy: B13 heavy with I34W
light: B11 light with D50A, N52S
notes: Trap-antibody fusion, VEGF trap between the Fab region (VH variant II) and the Fc; light chain variant IV
B16: dual inhibitor molecule H (AntiIL-6-VEGF Trap) (other)
heavy: B13 heavy
light: B11 light with D50A, N52S
notes: Trap-antibody fusion, VEGF trap between the Fab region (VH variant I) and the Fc; light chain variant IV
B17: dual inhibitor molecule J (AntiIL-6-VEGF Trap) (other)
heavy: B13 heavy with I34W
light: B11 light with N52S
notes: Trap-antibody fusion, VEGF trap between the Fab region (VH variant II) and the Fc; light chain variant III

What follows are binders tested against T1, human IL-6 (human, UniProt P05231 30-212) (assay: SPR Biacore, supernatant, Protein A capture, 37 C).
Summary of the method: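 Antibodies from 1:20-diluted culture supernatant in HBS-EP+ were captured on a Protein A chip at 37 C, with 10 mM glycine pH 1.7 regeneration. Sensorgrams were double-reference subtracted and fitted to a 1:1 Langmuir model.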
T1 sequence (P05231 30-212 limits assumed): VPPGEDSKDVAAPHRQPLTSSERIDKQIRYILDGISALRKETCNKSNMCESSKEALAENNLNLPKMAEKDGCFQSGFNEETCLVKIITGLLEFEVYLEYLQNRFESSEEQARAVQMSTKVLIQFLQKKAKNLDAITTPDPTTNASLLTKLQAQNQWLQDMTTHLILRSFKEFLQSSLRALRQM

| Binder | Kd | koff | kon |
| --- | --- | --- | --- |
| B1 | 0.184 nM | 0.000922 s⁻¹ | 5.01e+06 M⁻¹ s⁻¹ |
| B2 | 0.204 nM | 0.00278 s⁻¹ | 1.36e+07 M⁻¹ s⁻¹ |
| B3 | 0.191 nM | 0.000822 s⁻¹ | 4.29e+06 M⁻¹ s⁻¹ |
| B4 | 0.0834 nM | 0.00486 s⁻¹ | 5.82e+07 M⁻¹ s⁻¹ |
| B5 | 0.148 nM | 0.000734 s⁻¹ | 4.97e+06 M⁻¹ s⁻¹ |
| B6 | 0.403 nM | 0.000607 s⁻¹ | 1.5e+06 M⁻¹ s⁻¹ |
| B7 | 0.649 nM | 0.000559 s⁻¹ | 861000 M⁻¹ s⁻¹ |
| B8 | 0.114 nM | 0.000913 s⁻¹ | 8.03e+06 M⁻¹ s⁻¹ |
| B9 | 0.233 nM | 0.0016 s⁻¹ | 6.87e+06 M⁻¹ s⁻¹ |

What follows are binders tested against T2, human IL-6 (human, UniProt P05231 30-212) (assay: SPR Biacore, supernatant Ab on Protein A chip, 37 C).
T2 construct: IL-6 flowed over captured antibodies
T2 sequence (P05231 30-212 limits assumed): as above

| Binder | Kd | koff | kon |
| --- | --- | --- | --- |
| B10 | 0.611 nM | 0.000414 s⁻¹ | 677000 M⁻¹ s⁻¹ |

Each binder was assayed against T3, recombinant human IL-6 (human, UniProt P05231 30-212) (assay: SPR Biacore, purified dual inhibitor on Protein A chip, IL-6 analyte, 37 C).
T3 construct: Bought protein
T3 sequence (P05231 30-212 limits assumed): as above

| Binder | Kd | koff | kon |
| --- | --- | --- | --- |
| B11 | 0.34 nM | 0.000446 s⁻¹ | 1.31e+06 M⁻¹ s⁻¹ |
| B12 | 0.436 nM | 0.00065 s⁻¹ | 1.49e+06 M⁻¹ s⁻¹ |
| B13 | 0.451 nM | 0.000567 s⁻¹ | 1.26e+06 M⁻¹ s⁻¹ |
| B14 | 0.435 nM | 0.000499 s⁻¹ | 1.15e+06 M⁻¹ s⁻¹ |
| B15 | 0.452 nM | 0.000579 s⁻¹ | 1.28e+06 M⁻¹ s⁻¹ |
| B16 | 0.396 nM | 0.000529 s⁻¹ | 1.34e+06 M⁻¹ s⁻¹ |
| B17 | 0.468 nM | 0.000664 s⁻¹ | 1.42e+06 M⁻¹ s⁻¹ |

The binders below were run against T1, human IL-6 (assay: SPR Biacore, purified, Protein A capture, 37 C).
Method: (§1) Antibodies were captured on a Protein A chip (GE) by injecting 1:20 cell supernatant dilutions at 10 μL/min for 60 seconds. […] The sensor chip was regenerated by a 60 seconds injection of 10 mM Glycine pH 1.7 at the flow rate of 50 μL/min. […] For this setup, 1 μg/mL of purified antibody was injected over a Protein A chip at 10 μL/min for 25 seconds. […] The sensor chip was regenerated by a 60 seconds injection of 10 mM Glycine pH 1.7 at flow rate of 50 μL/min. Data analysis for supernatant and purified samples were performed using BIAevaluation software (GE). All sensorgrams were double reference subtracted and fit using a 1:1 Langmuir binding model.

| Binder | Kd | koff | kon |
| --- | --- | --- | --- |
| B1 | 0.238 nM | 0.000385 s⁻¹ | 1.62e+06 M⁻¹ s⁻¹ |
| B2 | 0.263 nM | 0.000481 s⁻¹ | 1.83e+06 M⁻¹ s⁻¹ |
| B3 | 0.188 nM | 0.000279 s⁻¹ | 1.49e+06 M⁻¹ s⁻¹ |
| B4 | 0.109 nM | 0.000406 s⁻¹ | 3.72e+06 M⁻¹ s⁻¹ |
| B5 | 0.149 nM | 0.000336 s⁻¹ | 2.26e+06 M⁻¹ s⁻¹ |
| B6 | 0.195 nM | 0.000238 s⁻¹ | 1.22e+06 M⁻¹ s⁻¹ |
| B7 | 0.214 nM | 0.000132 s⁻¹ | 615000 M⁻¹ s⁻¹ |
| B8 | 0.117 nM | 0.000424 s⁻¹ | 3.61e+06 M⁻¹ s⁻¹ |
| B9 | 0.251 nM | 0.000694 s⁻¹ | 2.76e+06 M⁻¹ s⁻¹ |

Each binder was assayed against T2, human IL-6 (assay: SPR Biacore, purified Ab on Protein A chip, 37 C).
Method: as §1

| Binder | Kd | koff | kon |
| --- | --- | --- | --- |
| B10 | 0.286 nM | 0.000319 s⁻¹ | 1.12e+06 M⁻¹ s⁻¹ |

Each binder was assayed against T3, recombinant human IL-6 (assay: SPR Biacore, supernatant dual inhibitor on Protein A chip, IL-6 analyte, 25 C).

| Binder | Kd | koff | kon |
| --- | --- | --- | --- |
| B11 | 0.225 nM | 0.000137 s⁻¹ | 611000 M⁻¹ s⁻¹ |
| B12 | 0.239 nM | 0.000169 s⁻¹ | 705000 M⁻¹ s⁻¹ |
| B13 | 0.589 nM | 0.000149 s⁻¹ | 252000 M⁻¹ s⁻¹ |
| B14 | 0.679 nM | 0.000147 s⁻¹ | 217000 M⁻¹ s⁻¹ |
| B15 | 0.282 nM | 0.000178 s⁻¹ | 629000 M⁻¹ s⁻¹ |
| B16 | 0.356 nM | 0.000162 s⁻¹ | 454000 M⁻¹ s⁻¹ |
| B17 | 0.28 nM | 0.000149 s⁻¹ | 534000 M⁻¹ s⁻¹ |
